Assay results from patent US20210292393A1 (published 2021).

These binders were tested against SARS-CoV-2 full length spike protein, V483A mutant (SARS-CoV-2, UniProt P0DTC2 14-1273).

| Binder | median fluorescence intensity, fold over isotype control [fold over isotype] |
| --- | --- |
| antibody 301 (antibody, V domains shown) VH: QVQLVQSGAEVKKPGASVKVSCKVSGYTLTELSMHWVRQAPGKGLEWMGGFDPEDGETIYAQKFQGRVTMTEDTSTDTAYMELSSLRSEDTAVYYCATAFCGGDCYPPDALDIWGQGTMVTVSS VL: DIQMTQSPSSVSASVGDRVTITCRASQGISSWLAWYQQKPGKAPKLLIYAASSLQSGVPSRFSGSGSGTDFTLTISSLQPEDFATYYCQQANSFPLTFGGGTKVEIK | 21.3 |
| antibody 303 (antibody, V domains shown) VH: QVQLVESGGGVVQPGRSLRLSCAASGFNLSSYAMHWVRQASGKGLEWVSLISYDGSIKYYADSVKGRFTVSGDNSKNMLFLQMNSLRADDSALYYCVRGGVSGPNAFDIWGQGTTVTVSS VL: not shown | 10 |
| antibody 295 (antibody, V domains shown) VH: QVQLQESGPGLVKPSQTLSLTCTVSGGSISSSDYYWSWIRQPPGKGLEWIGYIYYSGSTYYNPSLKSRVTISVDTSKNQFSLKLSSVTAADTAVYYCARVVGYCSSTSCYVDYWGQGTLVTVSS VL: EIVLTQSPATLSLSPGERVTLSCRASQSVSSYLAWYQQKPGQAPRLLIYDASNRATGIPARFSGSGSGTDFTLTISSLEPEDFAVYYCQQRSNWPPGLTFGGGTKVEIK | 9.93 |
| antibody 300 (antibody, V domains shown) VH: QVQLVESGGGVVQPGRSLTLSCAASGFTFSSYAMHWVRQAPGKGLEWVALISYDGNNKYYADSVKGRFTFSRDNSKNTLYLQMNSLRAEDTAVYYCARTNSGSYRTAFDYWGQGTLVTVSS VL: DIQMTQSPSTLSASVGDRVTITCRASQSISIWLAWYQQKPGKAPKLLIYKASSLESGVPSRFSGSGSGTEFTLTISSLQPDDFATYYCQQYNSLWTFGQGTKVEIK | 10.2 |

The binders below were run against SARS-CoV-2 full length spike protein, D614G mutant (SARS-CoV-2, UniProt P0DTC2 14-1273).

| Binder | median fluorescence intensity, fold over isotype control [fold over isotype] |
| --- | --- |
| antibody 258 (antibody, V domains shown) VH: QVQLQESGPGLVKPSETLSLTCTVSGGSISSYYWSWIRQPAGKGLEWIGRIYTSGSTNYNPSLKSRVTMSVDTSKNQFSLKLSSVTAADTAVYYCAAGYGSIDYWGQGTLVTVSS VL: not shown | 6.88 |
| antibody 291 (antibody, V domains shown) VH: QVQLVESGGGVVQPGRSLRLSCAASGFTFSSYAMHWVRQAPGKGLEWVAVISYDGSNKYYADSVKGRFTISRDNSKNTLYLQMNSLRAEDTAVYYCARASGGSYFGGMDVWGQGTTVTVSS VL: QSALTQPASVSGSPGQSITISCTGTSSDVGGYNYVSWYQQHPGKAPKLMIYEVSNRPSGVSNRFSGSKSGNTASLTISGLQAEDEADYYCSSYTSSSTLYVFGTGTKVTVL | 8.03 |

What follows are binders tested against SARS-CoV-2 full length spike protein, V367F mutant, expressed on CHO cells (SARS-CoV-2, UniProt P0DTC2 14-1273).

| Binder | median fluorescence fold over isotype control [fold over isotype] |
| --- | --- |
| antibody 370 (antibody, V domains shown) VH: QVQLVESGGGVVPPGRSLSLPCAASGFTFSAYAMHWLRQAPGKGLEWVAVISYDGTVKYVADSVRGRFTISRDNSNNTLYLQMTSLRSDDTAVYYCARDLGALAAAPTVYFVHWGQGTLVTVSS VL: SYVLTQPPSVSVAPGKTATITCAGEDIGRKSVHWYQQKPGQAPVLVIFYYSDRPSGIPDRFSGSVSGNTATLTIGRVEAGDEADYFCQVWDRTTNHVIFGGGTKVTVL | 35.3 |
| antibody 381 (antibody, V domains shown) VH: QVQLVESGGGVVQPGRSLRLSCAASGFTFSSYAMHWVRQAPGKGLEWVAVISYDGSNKYYADSVKGRFTISRDNSKNTLYLQMNSLRAEDTAVYYCARDRQYYDILTGYYLPTSEYYFDYWGQGTLVTVSS VL: DIQMTQSPSSVSASVGDRVTITCRASQGISSWLAWYQQKPGKAPKLLIYAASSLQSGVPSRFSGSGSGTDFTLTISSLQPEDFATYYCQQANSFPPTFGGGTKVEIK | 43.6 |
| antibody 368 (antibody, V domains shown) V domain 1: QITLKESGPTLVKPTETLTLTCAFSGFSLTKTGEAAGWIRQAPGRALEWVTVIFWDDDKRYSPSLQNRLTVTKDTSKNVVVLTMTNVDPVDTATYFCWAMGGPGKEFFGQGTRVAVSS V domain 2: QSVLTQPPSVSGAPGQRVTVSCTGTSSSIGPYSDVHWYQHIPGKAPRLLIFGTSNRPSGVPARFSGSKSGSSASLVIAGLQAEDEADYYCQSYDSSLGEIYVFGTGTTVTVL | 31.6 |

These binders were tested against SARS-CoV-2 full length spike protein, D614G mutant, expressed on CHO cells (SARS-CoV-2, UniProt P0DTC2 14-1273).

| Binder | median fluorescence fold over isotype control [fold over isotype] |
| --- | --- |
| antibody 370 (antibody, V domains shown) VH: QVQLVESGGGVVPPGRSLSLPCAASGFTFSAYAMHWLRQAPGKGLEWVAVISYDGTVKYVADSVRGRFTISRDNSNNTLYLQMTSLRSDDTAVYYCARDLGALAAAPTVYFVHWGQGTLVTVSS VL: SYVLTQPPSVSVAPGKTATITCAGEDIGRKSVHWYQQKPGQAPVLVIFYYSDRPSGIPDRFSGSVSGNTATLTIGRVEAGDEADYFCQVWDRTTNHVIFGGGTKVTVL | 9.47 |
| antibody 381 (antibody, V domains shown) VH: QVQLVESGGGVVQPGRSLRLSCAASGFTFSSYAMHWVRQAPGKGLEWVAVISYDGSNKYYADSVKGRFTISRDNSKNTLYLQMNSLRAEDTAVYYCARDRQYYDILTGYYLPTSEYYFDYWGQGTLVTVSS VL: DIQMTQSPSSVSASVGDRVTITCRASQGISSWLAWYQQKPGKAPKLLIYAASSLQSGVPSRFSGSGSGTDFTLTISSLQPEDFATYYCQQANSFPPTFGGGTKVEIK | 67.9 |
| antibody 368 (antibody, V domains shown) V domain 1: QITLKESGPTLVKPTETLTLTCAFSGFSLTKTGEAAGWIRQAPGRALEWVTVIFWDDDKRYSPSLQNRLTVTKDTSKNVVVLTMTNVDPVDTATYFCWAMGGPGKEFFGQGTRVAVSS V domain 2: QSVLTQPPSVSGAPGQRVTVSCTGTSSSIGPYSDVHWYQHIPGKAPRLLIFGTSNRPSGVPARFSGSKSGSSASLVIAGLQAEDEADYYCQSYDSSLGEIYVFGTGTTVTVL | 64.3 |

The binders below were run against SARS-CoV-2 full length spike protein, V483A mutant, expressed on CHO cells (SARS-CoV-2, UniProt P0DTC2 14-1273).

| Binder | median fluorescence intensity, fold over isotype control [fold over isotype] |
| --- | --- |
| antibody 477 (antibody, V domains shown) VH: QVQLVESGGGVVQPGRSLRLSCAASGITFSSYAMHWVRQAPGKGLEWVAVISYDGSDKYHADSVKGRFAISRDNSKNTLYLQMNSLRAEDTAVYYCAKDKGIAVAGTGWIRPDPEYYFDYWGQGTLVTVSS VL: not shown | 23.9 |
| antibody 510 (antibody, V domains shown) VH: QVQLQESGPGLVKPSQTLSLTCTVSGGSISSGSYYWSWIRQPAGKGLEWIGRIYTSGSTNYNPSLKSRVTISVDTSKNQFSLKLSSVTAADTAVYYCAREGQWLYRFDYWGQGTLVTVSS VL: QSALTQPASVSGSPGQSITISCTGTSSDVGNYDLVSWYQQHPGKAPKLVIYGVTKRPSGVSNRFSGSKSGNTASLTISGLQAEDEADYYCCSYATGDTSVFGTGTKVTVL | 1.06 |
| antibody 497 (antibody, V domains shown) VH: QVQLQESGPGLVKPSQTLSLTCTVSGGSINSFGYYWSWIRQHPGKGLEWIGYIYYSGSTDYNPSLNSRVTISLDTSKNQFLLKLTSVTAADTAVYYCAKLTDYYDSSGYSFDYWGQGTLVTVSS VL: DIQMTQSPSSVSASVGDRVTITCRASQDISRWLAWYQQKPGKAPKLLIYAASSLQSGVPSRFSGRGSGTELTLTISSLQPEDFATYFCQQAYSFPFTFGGGTKVEIK | 22.2 |
| antibody 509 (antibody, V domains shown) VH: QVQLVESGGGVVQPGRSLRLSCAASGFNLSSYAMHWVRQASGKGLEWVSLISYDGSIKYYTDSVKGRFTVSGDNSKNTLFLQMNSLRADDSALYYCVRGGVSGPNSFDLWGQGTTVTVSS VL: DVVMTQSPLSLPVTLGQPASISCRSSQSLVYSDGNTYVNWFQQRPGQSPRRLIYKVSIRASGVPDRFSGSGSGTDFALKISRVEAEDVGVYYCMQGTHWPVTFGQGTKVEIK | 11.4 |
| antibody 476 (antibody, V domains shown) VH: QVQLVQSGSELKKPGASVKVSCKASGYTFTSYAMNWVRQAPGQGLEWMGWINTNTGNPTYAQGFTGRFVFSLDTSVSTAYLQISSLKAEDTGVYYCARDHELPNSSSWFGHFEYWGQGTLVTVSS VL: SYELTQPPSVSVSPGQTARITCSGDALPKQYAYWYQQKAGQAPVLVIYKDSERRSGIPERFSGSSSGTTVTLTISGVQAEDEADYYCQSADSSGTSVVFGGGTKLTVL | 14.1 |
| antibody 475 (antibody, V domains shown) VH: QVQLVESGGGVVQPGRSLRLSCAASGFTFSSYAMHWVRQAPGKGLEWVTFISHEGSNKYYADSVKGRFTISRDNSKNTLYLQMNSLRAEDTAVYYCARTFEYSSSSATGDFDYWGQGTLVTVSS VL: QSVLTQPPSVSGAPGQRVTISCTGSSSNIGAGYDVHWYQQLPGTAPKLLIYGNSNRPSGVPDRFSGSKSGTSASLAITGLQAEDEADYYCQSYDSSLSGVVFGGGTKLTVL | 20.2 |
| antibody 492 (antibody, V domains shown) VH: QVQLVESGGGVVQPGRSLRLSCAASGFTFSSYGMHWVRQAPGKGLEWVAVISYDGSNKYYADSVKGRFTISRDNSKNTLYLQMNSLRAEDTAVYYCAKDGILWWWWGYFDYWGQGTLVTVSS VL: QSVLTQPPSVSGAPGQRVTISCTGSSSNIGAGFDVHWYQQLPGTAPKLLIYGNSNRPSGVPDRFSGSKSGTSASLAITGLQAEDEADYYCQSYDSSLSVVFGGGTKLTVL | 7.71 |
| antibody 471 (antibody, V domains shown) VH: QVQLVESGGGVVQPGRSLRLSCAASGFTFSSYAMHWVRQAPGKGLEWVAVISYDGSNKYYADSVKGRFTISRDNSKNTLYLQMNSLRAEDTAVYYCAKQYSPYCSGGSCYSGASDYWGQGTLVTVSS VL: not shown | 2.75 |
| antibody 504 (antibody, V domains shown) VH: QVQLVESGGGVVQPGRSLRLSCAASGFTFSSYGMHWVRQAPGKGLEWVAVISYDGSNKYYADSVKGRFTISRDNSKNTLYLQMNSLRAEDTAVYYCAKGGGGGYCSGGSCYSHYFDYWGQGTLVTVSS VL: not shown | 2.47 |
| antibody 480 (antibody, V domains shown) VH: QVQLVESGGGVVQPGRSLRLSCAASGFTFSSYAMHWVRQAPGKGLEWVAVISYDGNNKYYADSVKGRFTISRDNSKNTLYLQMNSLRAEDTAVYYCVRTNSGSYYAAFDYWGQGTLVTVSS VL: not shown | 10.7 |
| antibody 470 (antibody, V domains shown) VH: not shown VL: QSALTQPASVSGSPGQSITISCTGTSSDVGSYNLVSWYQQHPGKAPKLMIYEVSKRPSGVSNRFSGSKSGNTASLTISGLQAEDEADYYCCSYAGSSTLVFGGGTKLTVL | 7.63 |
| antibody 496 (antibody, V domains shown) VH: QVQLVQSGAEVKKPGASVKVSCKASGYTFTDYYIHWVRQAPGQGLEWMGWINPNSGGTNYAQKFQGRLTMTRDTSISTAYMELSRLRSDDTAVYYCARVYSMFREFIINPYYYYYGLDVWGQGTTVTVSS VL: QSALTQPASVSGSPRQSITISCTGTSSDVGSYNLVSWYQQHPGKAPKLMIYEGSKRPSGVSNRFSGSKSGNTASLAISGLQAEDEANYYCCSYAGSSTLVFGGGTKLTVL | 12.6 |
| antibody 474 (antibody, V domains shown) VH: EVQLVESGGGLVQPGGSLRLSCAASGFTFSSYWMHWVRQAPGKGLVWVSRINSDGSSTSYADSVKGRFTISRDNAKNTLYRQMNSLRAEDTAVYYCALGPLDIVGSYYYYGMDVWGQGTTVTVSS VL: NFMLTQPHSVSESPGKTVTISCTGSSGSIASNYVQWYQQRPGSAPTTVIYEDNQRPSGVPDRFSGSIDSSSNSASLTISGLKTEDEADYYCQSYDSSNQDVVFGGGTKLTVL | 1.05 |
